Reference: the supplement of paper PMC10567573
± gives the standard deviation.

Experiment: protein stability index of a GFP-peptide fusion (GPS, HEK-293T) (PSI 1-6); higher = more stable
[1] = treatment: DMSO, c terminus: native
[2] = treatment: MLN4924 1 uM, 8 h, c terminus: native
[3] = treatment: DMSO, c terminus: a fixed tail appended
[4] = treatment: MLN4924 1 uM, 8 h, c terminus: a fixed tail appended
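Further: 24-mer peptide tiles fused after GFP, lentivirally expressed, FACS-sorted into six equal bins by GFP/DsRed ratio, decoded by Illumina sequencing, PSI is the read-weighted mean bin number.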

Sequence	protein stability index [1]	protein stability index [2]	protein stability index [3]	protein stability index [4]
SVSCCHGNTLLAVRSVTDEPVPP [NEK8]	3.38 ± 0.17	3.48 ± 0.077	–	–
CSSARHPAWGHCFYRLYQDLETHR [SCNN1D]	–	–	2.15 ± 0.17	2 ± 0.16
IDILWRQDIDLGAGREVFDYSHRQ [NFE2L1]	–	–	2.24 ± 1	2.49 ± 0.34
DKALMIAMEYAPGGTLAEFIQKRC [NEK8]	–	–	2.39 ± 0.26	2.54 ± 0.17
LKKAKVQVERMREVNSRCYQPEPF [FBXO34]	–	–	2.79 ± 0.61	2.84 ± 0.16
KSQRQPRTSPSCAFRSDDTKGHPR [CDC14A]	–	–	4.49 ± 0.16	4.62 ± 0.2
YSRYLNEKAFSYRQMAFDFARVKK [SNAP91]	–	–	2.28 ± 0.59	2.7 ± 0.16
HWATGYSKSSHPLIRSLFHGFLFM [SOAT1]	–	–	2.86 ± 0.7	2.49 ± 0.56
FTDTSIILFLNKKDLFEEKIKKSP [GNAI1]	–	–	2.2 ± 0.97	2.35 ± 1.1
SSSSECLEDSTMGSVADTVARVLR [PLK2]	–	–	4.08 ± 0.22	4.03 ± 0.34
EEKERIGQFVFARDAKAAMAGRLM [AASDHPPT]	–	–	3.36 ± 0.19	3.43 ± 0.32
LAVFARCLAGCEGAHEQVDFKDFY [P3H4]	–	–	1.94 ± 0.45	2.02 ± 0.31
AGEGAEALARNLLVDGETGESFPA [NFE2L1]	–	–	5.37 ± 0.09	5.41 ± 0.21
GYPAAPPAVPFAPHFLQGGPFPLP [TBX6]	–	–	2.52 ± 0.58	2.7 ± 0.35
TATDGGSPPLSTEAHFMLQVADIN [PCDHGA10]	–	–	4.18 ± 0.089	4.19 ± 0.16
ADFGLARIYSYQMALTPVVVTLWY [CDK4]	–	–	3.52 ± 0.99	2.78 ± 0.81
ETPNPPQSAQIACSSPSVVASLPL [MAGEA10]	–	–	4.62 ± 0.25	4.59 ± 0.38
FAIGARARAEAEQMAKKAEAFQLY [FLOT1]	–	–	2.78 ± 0.42	3.02 ± 0.58
PPPSAPASEYCPGKLSWGTMARAL [WDR88]	–	–	3.02 ± 0.24	2.97 ± 0.4
DPNINPTIGASFMTKTVQYQNELH [RAB22A]	–	–	4.29 ± 0.31	4.19 ± 0.23
NGVSGPSQDLLPPPNPYPLPQEHS [TBX5]	–	–	4.64 ± 0.33	4.54 ± 0.56
TYECRCIGEEKEMWNFGEKYARF [TIA1]	2.58 ± 0.59	2.93 ± 0.65	–	–
DSQVSEEVKTRHSEKSQREDEEEE [CHGB]	–	–	5.75 ± 0.099	5.49 ± 0.21

Sequence	protein stability index [1]	protein stability index [2]	protein stability index [3]	protein stability index [4]
AFLRRVKTCNPPDAGPMVVHCSAG [PTPRD]	–	–	2.15 ± 0.068	2.18 ± 0.3
DPTGASIALFTARLHHPHKSVQHV [PTPN9]	–	–	2.37 ± 0.29	2.64 ± 0.23
VENELMISYLMFLQILVYFSFMSW [FAM98B]	–	–	2.94 ± 0.45	3.14 ± 0.05
ESKIREHLEKKGPQVRDWSHYFKI [KRT18]	–	–	2.82 ± 0.26	2.67 ± 0.28
GGLSLHDYKLLKPSLAVNLADPYR [JUNB]	–	–	2.65 ± 0.13	2.76 ± 0.098
TVETCRALGKLLPRETLCTELVLS [LRRC45]	–	–	2.67 ± 0.25	2.55 ± 0.13
GTRYSAPANLYVRELREVRRVPPR [PTPRD]	–	–	4.23 ± 0.23	3.9 ± 0.12
IANYELVYKDGEHGEEQRITIEPG [PTPRD]	–	–	4.64 ± 0.34	4.8 ± 0.28
AGPELDEMLREVDLNGDGTVDFDE [CABP4]	–	–	5.67 ± 0.23	5.36 ± 0.11
EVMESEEFMLLPANQLIDIISSDE [KLHL20]	–	–	4.54 ± 0.23	4.64 ± 0.32
RPLCAQGDWHSPTLIREKSFGACL [ELOA2]	–	–	2.53 ± 0.19	2.6 ± 0.21
SPLGALQHGFFRRTADEATNTGPA [DYRK1B]	–	–	4.38 ± 0.16	4.57 ± 0.053
KNYNYGMHYCAVPPRGPLGQGAMF [NEUROD6]	–	–	2.18 ± 0.44	2.47 ± 0.34
NECEITKRRRKSCQACRFMKCLKV [ESRRG]	–	–	2.57 ± 0.056	2.95 ± 0.38
RKLQKEQQRSKDLESRQRSLEQAN [TFE3]	–	–	5.09 ± 0.3	5.11 ± 0.27
EPEAASSRGSPVRVKREFEPASAR [USP39]	–	–	5.04 ± 0.16	5.11 ± 0.16
DRNVVTIFSAPNYCYRCGNQAAIM [PPP2CA]	–	–	2.7 ± 0.79	2.11 ± 0.23
RAALICLTLVLVASVLLQAVLYPR [CD207]	–	–	2.44 ± 0.55	2.59 ± 0.53
ANGGAICAVTFFTILLSYGVILHS [OR4A15]	–	–	2.79 ± 0.25	2.84 ± 0.31
GVLVEDSNNHHLMLEASEWATIEG [ZBED1]	–	–	4.2 ± 0.33	4.6 ± 0.32
TLLLELEQDSGVQVEGLTVQYLGQ [ADAMTS4]	–	–	2.87 ± 0.72	3.23 ± 0.38
ELIILYEKKGLHEKALQVLVDQSK [VPS39]	–	–	2.26 ± 0.25	2.53 ± 0.22
FILGRLCVPVFANMSREPFSTRAL [SOAT2]	–	–	2.94 ± 0.56	2.56 ± 0.52

Sequence	protein stability index [1]	protein stability index [2]	protein stability index [3]	protein stability index [4]
DVKAMGPLVLTEVLFNEKIREQIK [EIF5]	–	–	2.39 ± 0.11	2.28 ± 0.34
IGAAPFSGRRNWCSYVVTRTISCH [EMID1]	–	–	2.23 ± 0.27	2.07 ± 0.23
PSDPLVSIGALISKAHLEKVRSYV [ALDH8A1]	–	–	2.05 ± 0.079	2.12 ± 0.13
MESKRLRLLQEEDRRKKIARMGFN [DCAF4]	–	–	3.44 ± 0.36	3.73 ± 0.48
VDGRHLLRTLSRAKFWPRRRFNFF [DNAAF3]	–	–	1.92 ± 0.23	2.17 ± 0.11
DKRHVEQKIQFKRETASLKLLPHQ [PDZK1]	–	–	3.85 ± 0.31	3.8 ± 0.24
GWFVRELRVEFAAENYLSGGGPGD [FBXO33]	–	–	2.14 ± 0.27	2.21 ± 0.28
QNLCKGLSQPTTNLVAGCLQLNAR [NEUROD6]	–	–	2.97 ± 0.2	3.15 ± 0.23
VSSAVSPSIIPQEDPSQQFLQQSL [INTS4]	–	–	4.2 ± 0.24	4.41 ± 0.083
GESDNPLRFTSGLVVALDVDATLE [INTS4]	–	–	3.23 ± 0.37	3.54 ± 0.15
RRDAEEWFHAKSAELNKEVSTNTA [KRT13]	–	–	4.71 ± 0.25	4.79 ± 0.1
DTETFTWSQPITTGKAPSPRAAHA [KLHDC2]	–	–	4.31 ± 0.082	4.41 ± 0.51
PSSNNKELFYRVNYIGTKNVIETC [NSDHL]	–	–	2.7 ± 0.2	2.55 ± 0.18
ASQCCGVHVISLHIWELSSIKNSL [PTGFR]	–	–	–	2.31 ± 0.52
IRLQAELEEGENPVPAFQSDGTDE [SMG5]	–	–	5.27 ± 0.14	5.12 ± 0.23
CLEPLEQKLQEITRCKSSEEKKPG [TRIM39]	–	–	4.89 ± 0.23	5.08 ± 0.18
LTGTARYMSINTHLGKEQSRRDDL [CSNK1G1]	–	–	3.9 ± 0.31	4.02 ± 0.46
LHRTEGELQKIVQAGDKDLDGQLD [SLC25A25]	–	–	5.58 ± 0.21	5.55 ± 0.31
QPPAITQVHRQGERRRELVRSQTL [SMTNL2]	–	–	4.19 ± 0.39	4.57 ± 0.33
DDFFRHESGEHFRSLLGYDPQILQ [RAD54B]	–	–	3.44 ± 0.22	3.29 ± 0.26
SIRILDELVLPFQELQIDDNEYAY [HNF4A]	–	–	3.46 ± 0.26	3.44 ± 0.26
MVDSFHRTSLQYGIMCLKRLNYDR [PPFIA4]	–	–	1.88 ± 0.15	2.27 ± 0.2
DNSLSSQNYISQKEDASEFQILKY [MIA2]	–	–	3.94 ± 0.27	3.74 ± 0.6

Sequence	protein stability index [1]	protein stability index [2]	protein stability index [3]	protein stability index [4]
GPNPSKLIQQFLTLRPDQQLHIFN [CDS2]	–	–	2.16 ± 0.42	2.09 ± 0.25
DSKHVVLPVDDDSDLNVVASFDRR [RBBP5]	–	–	4.73 ± 0.39	5.21 ± 0.23
TWKVLFCSMSATFTLNFFRSGIQF [CLCN6]	–	–	3.25 ± 0.11	3.2 ± 0.73
LIVGRIAIGVSISLSSIATCVYIA [SLC2A12]	–	–	3.09 ± 0.45	3.01 ± 0.39
GVIDLFGDAFGSSASEPQPASQAA [SNAP91]	–	–	3.98 ± 0.14	4.11 ± 0.17
PHYPEYFQQPAPEYHQPQAPANVA [LOXL2]	–	–	4.26 ± 0.2	4.2 ± 0.28
TCLMISCYKGHKEIAQYLLEKGAD [FEM1C]	–	–	2.29 ± 0.39	2.05 ± 0.27
LRYQFSRPGPQSVPLQLSAHWQCG [FCHO1]	–	–	2.2 ± 0.09	2.12 ± 0.13
EKKEKEKKKKDKEKEKEKHKVKAE [BRD3]	–	–	5.41 ± 0.22	5.53 ± 0.42
IVADILLYVVIPTRRSTAEAFQIV [SPNS1]	–	–	2.97 ± 0.34	3.1 ± 0.18
LPLALYTATFAVHFMVLSKSGPGD [POMT2]	–	–	3.34 ± 0.33	3.01 ± 0.61
LTDGHFENILADNSVNDQTKILVV [SERPINB5]	–	–	3.09 ± 0.44	3.67 ± 0.29
EERILHQQVKCIITEEKVCMVCKK [VPS39]	–	–	4.21 ± 0.33	4.39 ± 0.29
SLLDVQRVPSFESFEDDCSQSLCL [ETS2]	–	–	3.9 ± 0.53	3.67 ± 0.54
FKDKLEETKGQINNSIKDLTDGHF [SERPINB5]	–	–	4.42 ± 0.2	4.5 ± 0.2
KILGYLNTNVLSRDLIPPHVNFSH [SLC6A17]	–	–	2.2 ± 0.33	2.375 ± 0.022
TLNVDRKEKCVSLPDCCHGSELRD [DLC1]	–	–	4.15 ± 0.1	4.26 ± 0.15
SFLKQKEQLEAEAQALRQELERQR [PBXIP1]	–	–	4.43 ± 0.39	4.52 ± 0.088
PDTQALCHHLPVIRQLATSGRFIV [SMG5]	–	–	2.07 ± 0.45	2.23 ± 0.44
GKRTPRGRRGWKKFYAVLKGTILY [PSD2]	–	–	2.97 ± 1.6	2.61 ± 0.73
